Source: IntAct's records for PubMed 12907709

B1: DNA-directed RNA polymerase II subunit rpb7 (Schizosaccharomyces pombe (strain ATCC 38366 / 972)), O14459 (parent)
chain: MPFFLKELSLTISLHPSYFGPRMQDYLKAKLLADVEGTCSGQYGYIICVLDSNTIDIDKGRVVPGQGFAEFEVKYRAVLWRPFRGEVVDAIVTTVNKMGFFANIGPLNVFVSSHLVPPDMKFDPTANPPNYSGEDQVIEKGSNVRLKIVGTRTDATEIFAIATMKEDYLGVL
partner: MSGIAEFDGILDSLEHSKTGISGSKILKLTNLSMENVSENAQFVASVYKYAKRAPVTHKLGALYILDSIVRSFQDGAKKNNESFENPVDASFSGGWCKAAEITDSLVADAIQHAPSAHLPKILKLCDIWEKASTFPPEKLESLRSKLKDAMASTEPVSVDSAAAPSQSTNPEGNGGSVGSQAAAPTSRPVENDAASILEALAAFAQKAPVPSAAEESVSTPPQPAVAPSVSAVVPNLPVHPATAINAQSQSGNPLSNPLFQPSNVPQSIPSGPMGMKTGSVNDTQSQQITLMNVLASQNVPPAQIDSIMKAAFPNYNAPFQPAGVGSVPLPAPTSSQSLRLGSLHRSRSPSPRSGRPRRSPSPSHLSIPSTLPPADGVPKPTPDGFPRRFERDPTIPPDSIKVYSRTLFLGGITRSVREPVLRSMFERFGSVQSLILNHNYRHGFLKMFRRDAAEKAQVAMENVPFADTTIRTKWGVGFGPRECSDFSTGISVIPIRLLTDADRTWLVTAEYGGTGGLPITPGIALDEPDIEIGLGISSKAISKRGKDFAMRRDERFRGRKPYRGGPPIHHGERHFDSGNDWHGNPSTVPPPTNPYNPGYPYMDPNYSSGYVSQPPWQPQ

Variants of: B1
Conditions: with seb1_schpo seb1, Q9UTE3

Question: How did the “effect of a mutation on the interaction” value turn out when MPFFLKELSLTISLHPSYFGPRMQDYLKAKLLADVEGTCSGQYGYIICVLDSNTIDIDKGRVVPGQGFAEFEVKYRAVLWRPFRGEVVDAIVTTVNKMGFFANIGPLNVFVSSHLVPPDMKFDPTANPPNYSGEDQVIEKGSNVRLKIVGTRTDATEIFAIATMKRAYLGVL [E166R;D167A] was run?
Answer: Its value is “disrupting interaction”.
